Experimental data published in patent US20160297851A1, “BROAD SPECTRUM […]” (priority 2012, published 2016).

Columns and labels:
[1] = target: E. coli SPase with each of the other 19 amino acids at residue 84, in mutant strains of E. coli; test: cell-based or functional assay
[2] = target: P. aeruginosa PAO1 SPase (LepB) P84L, in the bacteria (P. aeruginosa), Q9I5G7; test: cell-based or functional assay

B1: arylomycin C16 (peptide)
peptide: SAGXAY
modifications: here or on the partner: C16 fatty acyl (palmitoyl) tail on the N-terminus of N-methyl-D-Ser2; D-Ala3; N-methyl-4-hydroxyphenylglycine (MeHpg) at 5, written X; biaryl bridge between MeHpg5 and Tyr7 (macrocycle MeHpg5-Ala6-Tyr7); free C-terminal carboxyl; the filing counts the lipid tail as position 1
MIC [1]: < 16 µg/mL | MIC [2]: 8 µg/mL
